This passage reports Kd results from PMC8238520 (2021).

The chains are these.
B1: FAM-tagged PKCε pSer346/pSer350/pSer368 phosphopeptide (peptide)
chain: DRSK[pS]APT[pS]PCDQEIKELENNIRKAL[pS]FDNR
modifications: also: FAM label (end not given here)
B2: FAM-tagged PKCε pSer346/pSer368 phosphopeptide (peptide)
chain: DRSK[pS]APTSPCDQEIKELENNIRKAL[pS]FDNR
modifications: also: FAM label (end not given here)
B3: 14-3-3ζ dimer (natural protein)
chain: MDKNELVQKAKLAEQAERYDDMAACMKSVTEQGAELSNEERNLLSVAYKNVVGARRSSWRVVSSIEQKTEGAEKKQQMAREYREKIETELRDICNDVLSLLEKFLIPNASQAESKVFYLKMKGDYYRYLAEVAAGDDKKGIVDQSQQAYQEAFEISKKEMQPTHPIRLGLALNFSVFYYEILNSPEKACSLAKTAFDEAIAELDTLSEESYKDSTLIMQLLRDNLTLWTSDTQGDEAEAGEGGEN

Where no end group is shown, it is not given here. [ ]: non-standard residue; d: D form. pS = N[C@@H](COP(=O)(O)O)C(=O)O

Assay in all cases: FP
The target in the assay “14-3-3ζ dimer” is B3.
For assay [1], the target named is FAM-tagged PKCε pSer346 phosphopeptide (UniProt P16054, phosphoserine at 346; FAM label (end not stated)).
The target in assay [2] is FAM-tagged PKCε pSer346/pSer350 phosphopeptide (UniProt P16054, phosphoserine at 346; phosphoserine at 350; FAM label (end not stated)).

In the case of B1, in the assay with 14-3-3ζ dimer, the Kd (in general, the concentration at which binding is half-saturated) turned out to be 0.147 µM.

Take B2: the affinity in the assay with 14-3-3ζ dimer, expressed as Kd, was 0.03 µM.

For the molecule B3, the Kd in assay [1] was found to be 31.5 µM; in assay [2], 335 µM.
